This is an account of results in patent US20170306002A1 (UNITED STATES OF AMERICA AS REPESENTED BY THE SECRETARY …, published 2017).

The experiment addresses NA of A/Bethesda/NIH107-D31/2009 (pH1N1, H275Y) (influenza A virus …). Briefly: cell-based or functional assay.

B1: mAb CD6 (whole IgG) (antibody, V domains shown)
VH: QVKLQESGGGLVQPKGSLKLSCAASGFTFNTYAMNWVRQAPGKGLEWVARIRSKSNNYATFYADSVKDRFTISRDDSQSMLYLQMHNLKTDDTAMYYCVRPSIYYYASGYLDVWGAGTTVTVSS
VL: QIVLSQSPAILSASPGEKVTMTCRTSSSVSYMHWYQQKPGSSPKPWIYATSNLASGVPFRFSGSGSGTSYSLTISRVEAEDAATYYCQQWNSNPPTFGGGTKLEIKR
In the case of B1, the “IC50, inhibition of NA activity in ELLA (fetuin substrate)” value came to 0.029 µg/mL.
